Laboratory results: IntAct's records for PubMed 21637298

Assays:
xrcc4_human XRCC4 [1] = target: xrcc4_human XRCC4 (UniProt Q13426)
xrcc4_human XRCC4 [2] = target: xrcc4_human XRCC4 (UniProt Q13426); remark: listed apart in the source

Sequence of xrcc4_human XRCC4 (Q13426 whole entry): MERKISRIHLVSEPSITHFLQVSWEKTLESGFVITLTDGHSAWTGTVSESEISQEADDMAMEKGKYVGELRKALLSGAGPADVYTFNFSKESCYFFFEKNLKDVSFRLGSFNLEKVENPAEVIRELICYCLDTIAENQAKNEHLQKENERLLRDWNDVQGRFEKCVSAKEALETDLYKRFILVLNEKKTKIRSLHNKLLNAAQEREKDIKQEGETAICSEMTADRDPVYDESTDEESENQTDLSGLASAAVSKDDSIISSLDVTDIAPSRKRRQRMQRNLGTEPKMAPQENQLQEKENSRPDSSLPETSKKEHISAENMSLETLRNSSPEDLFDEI

| effect of a mutation on the interaction (xrcc4_human XRCC4 [1]) | effect of a mutation on the interaction (xrcc4_human XRCC4 [2]) | Substance |
| --- | --- | --- |
| decreasing interaction | – | Bifunctional polynucleotide phosphatase/kinase (Homo sapiens), Q96T60 S114A |
| – | decreasing interaction | Bifunctional polynucleotide phosphatase/kinase (Homo sapiens), Q96T60 S126A |
